Target: His/HA-SUMO-2 (stably expressed in HepaRG cells) (UniProt P61956)
Experiment: Ni-NTA purification of covalent His/HA-SUMO-2 conjugates from infected HepaRG cells, anti-E2A immunoblot, densitometry normalised to E2A levels

E2A K94/132/202R, untagged (pCMX3b-E2AK94/132/202R / pE2A-SCM, or expressed from HAdV E2A SCM mutant virus) (from UniProt P03265 1-529)
reduction of E2A SUMOylation against HAdV wt infection: 70%

Source: patent EP3815699A1, “NEW MEANS AND METHODS FOR THERAPY AND DIAGNOSIS OF […]” (Technische Universität München, priority 2019, dated 2021)
